Source: US6716624B2, “GSK3 polypeptides” (Chiron Corporation, priority 2000, dated 2004)

Experiments:
[1] = Aggregation of the purified construct on storage; assay type: physicochemical
Description: The GSK3 constructs of the invention are capable of crystallization. […] Potential to crystallize is measured using a variety of assays including specific activity, aggregation, microheterogeneity. (See, for example, Table 1). These parameters are indicative of the purity of the preparation and of the solubility of the construct. The specific activity is also a preferred assay for detecting binding of an inhibitor to the correct binding site of the GSK3 construct. Another suitable method is fluorescence polarization. Briefly, a putative inhibitor, with an attached fluorophore, tumbles freely in solution. Thus when the fluorophore is excited by polarized light, the emitted light which is produced after a finite delay now has random polarity and the emitted light is no longer polarized. […] A measurement of fluorescence polarization therefore indicates whether or not the GSK3 construct is suitable for identifying and optimizing an inhibitor. […] GSK3 constructs may not retain kinase activity, but their inhibitor binding can still be assessed using fluorescence polarization assays.
A truncated GSK3 polypeptide of the invention can be selected on the basis of one or more parameters. […] The potential of a polypeptide to form crystals can be evaluated on the basis of specific activity, purity, homogeneity, mass spectrometry, aggregation, and dynamic light scattering. […]

[2] = Concentration of the protein stock (solubility of the construct); assay type: physicochemical; conditions: concentrated protein stock
Description: The GSK3 constructs of the invention are capable of crystallization. […] Potential to crystallize is measured using a variety of assays including specific activity, aggregation, microheterogeneity. (See, for example, Table 1). These parameters are indicative of the purity of the preparation and of the solubility of the construct. The specific activity is also a preferred assay for detecting binding of an inhibitor to the correct binding site of the GSK3 construct. Another suitable method is fluorescence polarization. Briefly, a putative inhibitor, with an attached fluorophore, tumbles freely in solution. Thus when the fluorophore is excited by polarized light, the emitted light which is produced after a finite delay now has random polarity and the emitted light is no longer polarized. In the presence of a GSK3 construct with an intact inhibitor binding site, the tumbling rate is slowed sufficiently to ensure that, even though the light emission is delayed with respect to the excitation, the fluorophore has only moved very slightly. Thus, the excited light maintains polarization. A measurement of fluorescence polarization therefore indicates whether or not the GSK3 construct is suitable for identifying and optimizing an inhibitor. […] GSK3 constructs may not retain kinase activity, but their inhibitor binding can still be assessed using fluorescence polarization assays. […]

[3] = system: prephosphorylated SGSG-linked CREB peptide; experiment: Kinase specific activity of truncated GSK3β polypeptides (P81 filter assay); assay type: biochemical; conditions: 5.9 μM CREB peptide, 25 μM ATP, 20 min at room temperature
Description: A reaction mixture was prepared containing 5.9 μM prephosphorylated SGSG-linked CREB peptide (Wang et al., Anal. Biochem., 220:397-402 (1994))μ in reaction buffer (5 mM Tris, pH 7.5, 5 mM DTT; 1 mM MgCl2, 0.01% BSA) containing the desired amount of truncated GSK3 polypeptide. ATP was added (specific activity 5.3 Ci/mmol) to 25 μM final concentration and the mixture was incubated for 20 min. at room temperature. The reaction was stopped by transferring 30 μl onto a P81 filter disc (Whatman). The disc was washed four times in 150 ml of 75 mM H3PO4 for 5 minute each. The filter was air dried and counted under 5 ml scintillation fluid. The specific activity was counted by determining the ratio of counts (in cpm) by the mass of GSK3 in the reaction (in μg).

Construct 557: Truncated human GSK3β, M1 to I384, with N-terminal Glu-tag and Gly linker (SEQ ID NO:2)
Aggregation at 4 Degrees ([1]; 4 degrees, > 2 weeks): none @ > 2
Aggregation at RT ([1]; room temperature, time at which aggregation occurs): overnight
Concentration [2]: 12700 µg/mL
Mean Specific Activity ([3]; mean of N assays): 4.3 × 10^7 cpm/μg
specific activity ([3]; stated in the text): 4.3×10^7 cpm/μg
